Measurements from patent US20180306789A1 (published 2018).

T1: GRB14-002 (peptide code; source protein not spelled out) peptide on HLA-A*02:01 (human)
T1 peptide: GLVDGVFLV

T2: SNR-004 (peptide code; source protein not spelled out) peptide on HLA-A*02:01 (human)
T2 peptide: ILQDGRIFI

T3: WRN-002 (peptide code; source protein not spelled out) peptide on HLA-A*02:01 (human)
T3 peptide: ILQDLQPFL

T4: MUC-009 (peptide code; source protein not spelled out) peptide on HLA-A*02:01 (human)
T4 peptide: ILQEGTFKA

T5: GSTA4-001 (peptide code; source protein not spelled out) peptide on HLA-A*02:01 (human)
T5 peptide: KLQDGNHLL

T6: PFN1-001 (peptide code; source protein not spelled out) peptide on HLA-A*02:01 (human)
T6 peptide: LLQDGEFSM

T7: VPS39-001 (peptide code; source protein not spelled out) peptide on HLA-A*02:01 (human)
T7 peptide: LLQDKQFEL

T8: AHR-002 (peptide code; source protein not spelled out) peptide on HLA-A*02:01 (human)
T8 peptide: NLQEGEFLL

T9: KCM-001 (peptide code; source protein not spelled out) peptide on HLA-A*02:01 (human)
T9 peptide: TLQNSQFLL

T10: VPS51-001 (peptide code; source protein not spelled out) peptide on HLA-A*02:01 (human)
T10 peptide: TLTDEQFLV

T11: DDB1 and CUL4 associated factor 4-like 2 (DCAF4L2); peptide DCAF4L2-001 peptide on HLA-A*02:01 (human)
T11 peptide: ILQDGQFLV

B1: R53P2A9 (TCR, V domains shown)
Valpha: AQTVTQSQPEMSVQEAETVTLSCTYDTSESDYYLFWYKQPPSRQMILVIRQEAYKQQNATENRFSVNFQKAAKSFSLKISDSQLGDAAMYFCAYNSYAGGTSYGKLTFGQGTILTVHP
Vbeta: DAGVTQSPTHLIKTRGQQVTLRCSPISGHKSVSWYQQVLGQGPQFIFQYYEKEERGRGNFPDRFSARQFPNYSSELNVNALLLGDSALYLCASSLDGTSEQYFGPGTRLTVT
B2: R52P2G11 (TCR, V domains shown)
Valpha: KNQVEQSPQSLIILEGKNCTLQCNYTVSPFSNLRWYKQDTGRGPVSLTIMTFSENTKSNGRYTATLDADTKQSSLHITASQLSDSASYICVVSAYGKLQFGAGTQVVVTP
Vbeta: DAGVIQSPRHEVTEMGQEVTLRCKPISGHNSLFWYRQTMMRGLELLIYFNNNVPIDDSGMPEDRFSAKMPNASFSTLKIQPSEPRDSAVYFCASSLGSPDGNQPQHFGDGTRLSIL
B3: R36P3F9 (TCR, V domains shown)
Valpha: SQQGEEDPQALSIQEGENATMNCSYKTSINNLQWYRQNSGRGLVHLILIRSNEREKHSGRLRVTLDTSKKSSSLLITASRAADTASYFCATVSNYQLIWGAGTKLIIKP
Vbeta: EAQVTQNPRYLITVTGKKLTVTCSQNMNHEYMSWYRQDPGLGLRQIYYSMNVEVTDKGDVPEGYKVSRKEKRNFPLILESPSPNQTSLYFCASSSTSGGLSGETQYFGPGTRLLVL

Biological target: T1, GRB14-002 (peptide code; source protein …)
Assay: cytokine release

Binder	binding result
B1	no recognition
B2	no recognition
B3	no recognition

Biological target: T2, SNR-004 (peptide code; source protein …)
Assay: cytokine release

Binder	binding result
B1	no recognition
B2	no recognition
B3	no recognition

Biological target: T3, WRN-002 (peptide code; source protein …)
Assay: cytokine release

Binder	binding result
B1	no recognition
B2	no recognition
B3	no recognition

Biological target: T4, MUC-009 (peptide code; source protein …)
Assay: cytokine release

Binder	binding result
B1	no recognition
B2	no recognition
B3	no recognition

Biological target: T5, GSTA4-001 (peptide code; source protein …)
Assay: cytokine release

Binder	binding result
B1	no recognition
B2	no recognition
B3	no recognition

Biological target: T6, PFN1-001 (peptide code; source protein …)
Assay: cytokine release

Binder	binding result
B1	no recognition
B2	no recognition
B3	no recognition

Biological target: T7, VPS39-001 (peptide code; source protein …)
Assay: cytokine release

Binder	binding result
B1	no recognition
B2	no recognition
B3	no recognition

Biological target: T8, AHR-002 (peptide code; source protein …)
Assay: cytokine release

Binder	binding result
B1	no recognition
B2	no recognition
B3	no recognition

Biological target: T9, KCM-001 (peptide code; source protein …)
Assay: cytokine release

Binder	binding result
B1	no recognition
B2	no recognition
B3	no recognition

Biological target: T10, VPS51-001 (peptide code; source protein …)
Assay: cytokine release

Binder	binding result
B1	no recognition
B2	no recognition
B3	no recognition

Biological target: T11, DDB1 and CUL4 associated factor 4-like …
Assay: multimer staining

Binder	binding result
B1	recognises
B2	recognises
B3	recognises
